From patent US11795460B2, “Compositions and methods for TTR gene editing and treating ATTR amyloidosis” (Intellia Therapeutics, Inc., priority 2017, dated 2023)
Strand notation (5' to 3'): a small letter for the sugar, then the base; units joined by * are phosphorothioate-linked, units joined directly phosphodiester-linked; [ ] holds rarer units or linkages, { } end groups; capitals alone tell only the bases. m = 2'-O-methyl; r = 2'-OH (RNA)

Experiments:
human TTR sequence = test: Liver editing in humanized TTR mice dosed with LNP formulations (Table 26); type: in vivo, mouse; conditions: for Liver editing: LNP Formulation Numbers 1-5, Cas9 mRNA SEQ ID NO:2, 2 mg/kg total RNA, mean values, FIG. 9; for % Editing: Table 26, liver editing, LNP Formulation Numbers 6-16, 1 mg/kg (total RNA content)
Description: Unless otherwise noted, CD-1 female mice, ranging from 6-10 weeks of age were used in each study. Animals were weighed and grouped according to body weight for preparing dosing solutions based on group average weight. LNPs were dosed via the lateral tail vein in a volume of 0.2 mL per animal (approximately 10 mL per kilogram body weight). […] Body weight was measured at twenty-four hours post-administration, and animals were euthanized at various time points by exsanguination via cardiac puncture under isoflourane anesthesia. Blood was collected into serum separator tubes or into tubes containing buffered sodium citrate for plasma as described herein. For studies involving in vivo editing, liver tissue was collected from the median lobe or from three independent lobes (e.g., the right median, left median, and left lateral lobes) from each animal for DNA extraction and analysis.
To quantitatively determine the efficiency of editing at the target location in the genome, sequencing was utilized to identify the presence of insertions and deletions introduced by gene editing.
Primers were designed around the target site within the gene of interest (e.g. TTR), and the genomic area of interest was amplified.
Additional PCR was performed per the manufacturer's protocols (Illumina) to add chemistry for sequencing. The amplicons were sequenced on an Illumina MiSeq instrument. The reads were aligned to a reference genome (e.g., the human reference genome (hg38), the cynomologus reference genome (mf5), the rat reference genome (rn6), or the mouse reference genome (mm10)) after eliminating those having low quality scores. The resulting files containing the reads were mapped to the reference genome (BAM files), where reads that overlapped the target region of interest were selected and the number of wild type reads versus the number of reads which contain an insertion, substitution, or deletion was calculated.
The editing percentage (e.g., the “editing efficiency” or “percent editing” or “indel frequency”) is defined as the total number of sequence reads with insertions/deletions (“indels”) or substitutions over the total number of sequence reads, including wild type.
Mice humanized with respect to the TTR gene were dosed with LNP formulations 701-704 containing the guides indicated in Table 25 (5 mice per formulation). These humanized TTR mice were engineered such that a region of the endogenous murine TTR locus was deleted and replaced with an orthologous human TTR sequence so that the locus encodes a human TTR protein. For comparison, 6 mice with murine TTR were dosed with LNP700, containing a guide (G000282) targeting murine TTR. […]

[1] = test system: potential off-target sites; test: Targeted amplicon sequencing of potential off-target sites in PHH treated with LNPs (Tables 31-33); type: cell-based, human; conditions: for Indel Frequency (using LNP with 100 ng Cas9 mRNA and 14.68 nM gRNA) / Indel rate at the on-target site / Indels at in silico predicted off-target sites / Number of potential off-target sites identified by the oligo insertion assay at which indels were detected: PHH treated with LNP; for Indel Frequency (using LNP with 100 ng Cas9 mRNA and 14.68 nM gRNA): NGS targeted amplicon sequencing; for Indel rate at the on-target site / Indels at in silico predicted off-target sites / Number of potential off-target sites identified by the oligo insertion assay at which indels were detected: 100 ng Cas9 mRNA (SEQ ID NO:1), near-saturating dose; for Indel rate at the on-target site: gRNA 14.68 nM; for Number of potential off-target sites identified by the oligo insertion assay at which indels were detected: indels at low levels; for On-target indel rate at highest concentration without detected off-target sites / Highest gRNA concentration at which the potential off-target sites were no longer detected: PHH; for On-target indel rate at highest concentration without detected off-target sites: G000480 at 0.57 nM, G000486 at 15.51 nM gRNA; for Highest gRNA concentration at which the potential off-target sites were no longer detected: LNP dose response, 11 points 0.001-46.55 nM gRNA
Description: The HEK293_Cas9 cells used in Example 5 for detecting potential off-targets constitutively overexpress Cas9, leading to a higher number of potential off-target “hits” as compared to a transient delivery paradigm in various cell types. […] Accordingly, potential off-target sites identified by an oligo insertion method as used in Example 5 may be validated using targeted sequencing of the identified potential off-target sites.
In one approach, primary hepatocytes are treated with LNPs comprising Cas9 mRNA and a sgRNA of interest (e.g., a sgRNA having potential off-target sites for evaluation). The primary hepatocytes are then lysed and primers flanking the potential off-target site(s) are used to generate an amplicon for NGS analysis. Identification of indels at a certain level may validate potential off-target site, whereas the lack of indels found at the potential off-target site may indicate a false positive in the HEK293_Cas9 cell assay.
Following the identification of potential off-target sites in […] via the oligo insertion assay, certain potential sites were further evaluated by targeted amplicon sequencing, e.g., as described in Example 6. In addition to the potential off-target sites identified by the oligo insertion strategy, additional potential off-target sites identified by in silico prediction were included in the analysis.
To this end, PHH were treated with LNPs comprising 100 ng of Cas9 mRNA (SEQ ID NO:1) and the gRNA of interest at 14.68 nM (in a 1:1 ratio by weight), as described in Example 4. The LNPs were prepared using the cross-flow procedure described above and purified and concentrated using PD-10 columns and Amicon centrifugal filter units, respectively. The LNPs were formulated with an N:P ratio of 6.0 and contained Lipid A, Cholesterol, DSPC, and PEG2k-DMG in a 50:38:9:2 molar ratio, respectively. Following LNP treatment, isolated genomic DNA was analyzed by NGS (e.g., as described in Examples 1 and 6) to determine whether indels could be detected at the potential off-target site, which would be indicative of a Cas9-mediated cleavage event. Tables 31 and 32 show the potential off-target sites that were evaluated for the gRNAs G000480 and G000486, respectively.
As shown in FIGS. 21A-B and 22A-B and Table 33 below, indels were detected at low levels for only two of the potential off-target sites identified by the oligo insertion assay for G000480, and only one for G000486. […] Further, indels were only detected at these sites using a near-saturating dose of LNP, as the indel rates observed at the on-target sites for G000480 and G000486 were ˜97% and ˜91%, respectively (See Table 33).
A dose response assay was then performed in order to determine the highest dose of LNP in which no off-targets were detected. PHH were treated with LNPs comprising either G000480 or G000486 as described in Example 4. The doses ranged across 11 points with respect to gRNA concentration (0.001 nM, 0.002 nM, 0.007 nM, 0.02 nM, 0.06 nM, 0.19 nM, 0.57 nM, 1.72 nM, 5.17 nM, 15.51 nM, and 46.55 nM).

[2] = Off-Target site INS-OT.4 (of the respective guide)

| Molecule | Liver editing (human TTR sequence) | % Editing (human TTR sequence) | Indel Frequency (using LNP with 100 ng Cas9 mRNA and 14.68 nM gRNA) [1, 2] | Indel Frequency (using LNP with 100 ng Cas9 mRNA and 14.68 nM gRNA) ([1]; On-Target site) | Indel rate at the on-target site [1] | Indels at in silico predicted off-target sites [1] | Number of potential off-target sites identified by the oligo insertion assay at which indels were detected [1] | On-target indel rate at highest concentration without detected off-target sites [1] | Highest gRNA concentration at which the potential off-target sites were no longer detected [1] | Indel Frequency (using LNP with 100 ng Cas9 mRNA and 14.68 nM gRNA) ([1]; Off-Target site INS-OT.2) |
| --- | --- | --- | --- | --- | --- | --- | --- | --- | --- | --- |
| G000499: TTR sgRNA modified sequence, Human, SEQ ID No. 106; guide sequence of CR005303 (nucleic acid) guide: mU*mG*mA*rArUrCrCrArArGrUrGrUrCrCrUrCrUrGrArGrUrUrUrUrArGrAmGmCmUmAmGmAmAmAmUmAmGmCrArArGrUrUrArArArArUrArArGrGrCrUrArGrUrCrCrGrUrUrArUrCrAmAmCmUmUmGmAmAmAmAmAmGmUmGmGmCmAmCmCmGmAmGmUmCmGmGmUmGmCmU*mU*mU*mU | ~60% | 65.66% |  |  |  |  |  |  |  |  |
| G000494: TTR sgRNA modified sequence, Human, SEQ ID No. 101; guide sequence of CR003360 (nucleic acid) guide: mG*mU*mG*rArGrUrCrUrGrGrArGrArGrCrUrGrCrArUrGrUrUrUrUrArGrAmGmCmUmAmGmAmAmAmUmAmGmCrArArGrUrUrArArArArUrArArGrGrCrUrArGrUrCrCrGrUrUrArUrCrAmAmCmUmUmGmAmAmAmAmAmGmUmGmGmCmAmCmCmGmAmGmUmCmGmGmUmGmCmU*mU*mU*mU | ~60% |  |  |  |  |  |  |  |  |  |
| G000486: TTR sgRNA modified sequence, Human, SEQ ID No. 93; guide sequence of CR003339 (nucleic acid) guide: mA*mC*mA*rCrArArArUrArCrCrArGrUrCrCrArGrCrArGrUrUrUrUrArGrAmGmCmUmAmGmAmAmAmUmAmGmCrArArGrUrUrArArArArUrArArGrGrCrUrArGrUrCrCrGrUrUrArUrCrAmAmCmUmUmGmAmAmAmAmAmGmUmGmGmCmAmCmCmGmAmGmUmCmGmGmUmGmCmU*mU*mU*mU |  |  | 0.47% | 91.33% | ~91% | No indels were detected | one | 89.50% | 15.51 nM |  |
| G000481: TTR sgRNA modified sequence, Human, SEQ ID No. 88; guide sequence of CR003345 (nucleic acid) guide: mU*mC*mU*rArGrArArCrUrUrUrGrArCrCrArUrCrArGrGrUrUrUrUrArGrAmGmCmUmAmGmAmAmAmUmAmGmCrArArGrUrUrArArArArUrArArGrGrCrUrArGrUrCrCrGrUrUrArUrCrAmAmCmUmUmGmAmAmAmAmAmGmUmGmGmCmAmCmCmGmAmGmUmCmGmGmUmGmCmU*mU*mU*mU |  | 61.28% |  |  |  |  |  |  |  |  |
| G000480: TTR sgRNA modified sequence, Human, SEQ ID No. 87; guide sequence of CR003353 (nucleic acid) guide: mA*mA*mA*rGrGrCrUrGrCrUrGrArUrGrArCrArCrCrUrGrUrUrUrUrArGrAmGmCmUmAmGmAmAmAmUmAmGmCrArArGrUrUrArArArArUrArArGrGrCrUrArGrUrCrCrGrUrUrArUrCrAmAmCmUmUmGmAmAmAmAmAmGmUmGmGmCmAmCmCmGmAmGmUmCmGmGmUmGmCmU*mU*mU*mU |  |  | 0.97% | 97.33% | ~97% | No indels were detected | two | 84.60% | 0.57 nM | 1.43% |
